Test results reported in article PMC3265435, “More than just a metabolic regulator - elucidation and validation of new targets of PdhR in Escherichia coli”.

How the values were obtained:
PdhR (his-tagged) [1] = target: T1, PdhR (his-tagged) (Escherichia coli, UniProt P0ACL9 1-254); experiment: EMSA; 0.1 pmol DNA, 54 pmol PdhR; EMSA as in ref 7; 0.1 pmol of each DNA fragment with 54 pmol PdhR; buffer, salt, pH and temperature not given; settings: protein: recombinant, tags: His, chain copies: 2, label: 5'DY682 (strand 1), 5'DY782 (strand 2)
PdhR (his-tagged) [2] = target: T1, PdhR (his-tagged); experiment: EMSA; 0.1 pmol DNA, 54 pmol PdhR; same binding activity as pdhR site; EMSA as in ref 7; 0.1 pmol of each DNA fragment with 54 pmol PdhR; buffer, salt, pH and temperature not given; settings: protein: recombinant; tags: His; chain copies: 2; label: 5'DY682 (strand 1); 5'DY782 (strand 2); blunt

T1 sequence (P0ACL9 whole entry, the tested form may be a part): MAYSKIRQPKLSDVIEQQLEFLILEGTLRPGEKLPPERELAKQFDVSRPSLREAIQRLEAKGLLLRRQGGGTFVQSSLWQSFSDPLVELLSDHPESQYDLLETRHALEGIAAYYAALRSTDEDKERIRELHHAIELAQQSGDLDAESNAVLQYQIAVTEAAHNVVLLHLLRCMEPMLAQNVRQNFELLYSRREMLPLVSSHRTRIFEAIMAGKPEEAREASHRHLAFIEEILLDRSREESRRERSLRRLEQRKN

B1: PdhRop (dsDNA)
DNA 1: GCCGAAGTCAATTGGTCTTACCAATTTCATGTCTGTG
DNA 2: CACAGACATGAAATTGGAAGACCAATTGACTTCGGC
binding result (PdhR (his-tagged) [1]; printed strands not exact complements: S23 lacks one T opposite an A of S22 (37/36 nt; possible misprint)): binds

B2: GlcDop (dsDNA)
DNA 1: CTATCTCTTTAGCTACCGGTCAGACCATTTTTTTTCCAGCTCT
DNA 2: AGAGCTGGAAAAAAAATGGTCTGACCGGTAGCTAAAGAGATAG
binding result (PdhR (his-tagged) [2]): binds

B3: MetBop (dsDNA)
DNA 1: AACGGCTATTTGGGATTTGCTCAATCTATACGCAAAGAAGTTT
DNA 2: AAACTTCTTTGCGTATAGATTGAGCAAATCCCAAATAGCCGTT
binding result (PdhR (his-tagged) [1]; blunt): no binding
